For one assay, the target named is T1, FBXW8 (human, UniProt Q8N3Y1 1-598).
T1 construct: FBXW8, human, full length; source: HEK293S, co-expressed (BacMam), purified within CRL7^FBXW8; not shown: GFP, N-terminal, cleaved
T1 sequence (looked up): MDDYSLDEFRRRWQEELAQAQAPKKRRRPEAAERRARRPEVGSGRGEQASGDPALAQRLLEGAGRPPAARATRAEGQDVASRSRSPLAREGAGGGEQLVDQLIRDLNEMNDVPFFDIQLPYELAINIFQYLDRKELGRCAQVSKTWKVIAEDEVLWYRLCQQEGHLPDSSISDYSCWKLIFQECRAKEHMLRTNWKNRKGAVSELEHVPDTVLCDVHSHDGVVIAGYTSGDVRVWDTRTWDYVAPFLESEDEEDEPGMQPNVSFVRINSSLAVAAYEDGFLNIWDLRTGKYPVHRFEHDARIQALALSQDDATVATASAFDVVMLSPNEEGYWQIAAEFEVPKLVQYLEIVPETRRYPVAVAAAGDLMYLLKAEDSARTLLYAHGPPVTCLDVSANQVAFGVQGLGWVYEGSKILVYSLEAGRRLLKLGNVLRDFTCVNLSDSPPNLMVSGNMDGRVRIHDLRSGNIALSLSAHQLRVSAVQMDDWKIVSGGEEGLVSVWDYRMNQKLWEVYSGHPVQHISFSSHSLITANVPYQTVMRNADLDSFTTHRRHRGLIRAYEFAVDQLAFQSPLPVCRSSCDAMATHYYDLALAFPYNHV
Briefly: cryo-EM structure; purified CRL7^FBXW8 and CUL1 N-terminal region mixed 15 min before plunging, on ice; Glacios 200 kV. To be noted: both partners purified.

Assay [1] deals with T2, CUL1–RBX1 (full-length CUL1) (human, UniProt Q13616 1-776; P62877 5-108).
T2 construct: CUL1, human, full length; RBX1, human, residue 5 to C terminus; Unneddylated form used in the SEC experiments; also called full-length CUL1–RBX1; not shown: GST, N-terminal, cleaved
Briefly: SEC; comigration; proteins mixed at equimolar 1.5 μM for at least 10 min on ice; Superose 6 5/150GL; 50 mM Tris pH 7.5, 150 mM NaCl, 1 mM DTT; fractions on Coomassie-stained SDS–PAGE. To be noted: both partners purified.

The results in this text go back to PMC9507964, “Structure of CRL7^FBXW8 reveals coupling with CUL1–RBX1/ROC1 for multi-cullin-RING E3-catalyzed ubiquitin ligation” (Nature Structural & Molecular Biology, 2022).

B1: CUL1 N-terminal region (residues 1–410) (domain or fragment)
chain: not shown
notes: CUL1, human, residues 1 to 410 encompassing the CR1, CR2 and CR3 domains; Expressed as a GST-thrombin or GST-TEV fusion; also called CUL1^NTD; N-terminal region of CUL1 (CR1, CR2 and CR3 domains)
As for B1, in the assay with FBXW8, the binding result was “binds”.

B2: SKP1^ΔΔ–β-TRCP1 (monomeric form) complex (complex, human)
chain 1: MLQRDFITALPARGLDHIAENILSYLDAKSLCAAELVCKEWYRVTSDGMLWKKLIERMVRTDSLWRGLAERRGWGQYLFKNKPPDGNAPPNSFYRALYPKIIQDIETIESNWRCGRHSLQRIHCRSETSKGVYCLQYDDQKIVSGLRDNTIKIWDKNTLECKRILTGHTGSVLCLQYDERVIITGSSDSTVRVWDVNTGEMLNTLIHHCEAVLHLRFNNGMMVTCSKDRSIAVWDMASPTDITLRRVLVGHRAAVNVVDFDDKYIVSASGDRTIKVWNTSTCEFVRTLNGHKRGIACLQYRDRLVVSGSSDNTIRLWDIECGACLRVLEGHEELVRCIRFDNKRIVSGAYDGKIKVWDLVAALDPRAPAGTLCLRTLVEHSGRVFRLQFDEFQIVSSSHDDTILIWDFLNDPAAQAEPPRSPSRTYTYISR
chain 2: MPSIKLQSSDGEIFEVDVEIAKQSVTIKTMLEDLGMDPVPLPNVNAAILKKVIQWCTHHKDDPPDDIPVWDQEFLKVDQGTLFELILAANYLDIKGLLDVTCKTVANMIKGKTPEEIRKTFNIKNDFTEEEEAQVRKENQWCEEK
notes: β-TRCP1, human, monomeric form, from residue 175 to C terminus; also called SKP1-β-TRCP1; SKP-β-TRCP1; not shown: His-MBP, N-terminal, cleaved
For B2, the binding result in assay [1] is given as “binds”.
